The subject of test [1] is MMP-9 secreted from HCLE cells. Nature of the test: TNF-alpha induction of MMP-9 secretion from stratified HCLE cells (gelatin zymography). It is filed as cell-based, human. The settings on record: clusterin 50 ug/ml with TNF-alpha 10 ng/ml, 24 hours. As for the experimental part: (§1) HCLE cells were grown to be confluent in KSFM media and then replenished with DMAM/F12 media to stratify cells for 7 days. To these cells in serum-free DMEM/F12 media, clusterin (50 ug/ml), bovine serum albumin (BSA, 50 ug/ml), and TNF-alpha (10 ng/ml), individually or in combination, were treated for 24 hours. The same volume of supernatants of the cell cultures treated were collected to resolve on SDS/PAGE gel containing gelatin in order to perform gelatin zymography to visualize the presence of MMP-9 secreted from the cells.
as §1, with “cells. […] Therefore, Clusterin inhibits the induction of MMP-9 from human corneal limbal epithelial (HCLE) cells. (See FIG. 10)” for “cells.”

A further test has as its target T1, MMP-2 (Mus musculus, UniProt P33434).
T1 construct: purchased R&D Systems
Nature of the test: In vitro protein binding assay (CLU-His pull-down, gelatin zymography), MMP-2. The following applies: 150 mM NaCl binding buffer. Here is the method:
(§2) A mixture of MMP-2, MMP-9, and C-terminal truncated MMP-9 (9-ΔC) was incubated with His-tagged CLU, used in a pull-down assay and resolved on a gelatin zymography gel. The input and bound samples were loaded in a series of dilution.
(§3) Next, we tested the interaction of secreted CLU using mouse recombinant proteins. We used purified recombinant proteins of MMP-2, MMP-9, and CLU that were secreted from a mouse myeloma cell line (NSO). All of the proteins were purchased from R&D Systems. A mixture of MMP-2, MMP-9, and C-terminal truncated MMP-9 (9-ΔC) was incubated with His-tagged CLU, and subjected to the pull-down assay, using 150 mM NaCl-containing binding buffer and anti-His tag antibody resins. Portions of the input samples (Input) and proteins bound to the antibody (Bound) were resolved on the gelatin zymography gel.
The recombinant CLU contains a (His)6-Tag at the C-terminus of the protein, which was used for pull-down experiments with anti-His tag antibody beads. It was previously reported that CLU also binds to MT6-MMP/mmp-25 and that the hemopexin domain in the MMP C-terminal region is required for their interaction (Matsuda et al., 2003). To use as an internal control for the binding experiment, we removed part of MMP-9 (MMP-9-ΔC) by promoting self-processing by APMA (4-aminophenylmercuric acetate) treatment. […]

Test [2] has as its target T2, pro-MMP-9, MMP-9, MMP-9-ΔC (Mus musculus, UniProt P41245).
T2 construct: mixture of 30-100 ng of pro-MMP-9, MMP-9, and MMP-9-ΔC; pro-MMP-9, propeptide-cleaved MMP-9 (MMP-9), and MMP-9 with both propeptide and C-terminal region cleaved (MMP-9-ΔC); MMP-9 with both propeptide and C-terminal region cleaved (MMP-9-ΔC); purchased R&D Systems; host or cells: mouse myeloma cell line (NSO)
Nature of the test: In vitro protein binding assay (CLU-His pull-down, gelatin zymography), MMP-9 forms. Here is the method: (§4) (A) Recombinant proteins, Pro-MMP-9, MMP-9, MMP-9-ΔC, CLU-His were incubated together, and bound to agarose beads coupled or uncoupled with Anti-(His)6 antibody in two different binding buffers containing Brij 35 concentrations, 0.04% or 0.002%. MMPs bound to the beads were obtained by washing with the corresponding binding buffer to resolve on gelatin zymography. Three different volumes of each sample were loaded to compare the relative density. (B) Pro-MMP-9 bound to CLU coupled to agarose beads, prepared as in (A), was incubated in the presence or absence of APMA for 1 h at RT, prior to separation of beads (B) and supernatant (S) fractions, which were resolved by zymography. Arrow indicates MMP-9 processed by APMA.
as §2
(§5) To make various processed forms of MMPs, pro-MMPs were incubated with 1 mM APMA in TSCB buffer at 37° C. for 4 h to make C-terminal truncated processed MMP-9 (MMP-9-ΔC) [Murphy, 1995]. CLU-His (2.5 μg) was incubated with mixture of 30-100 ng of pro-MMP-9, MMP-9, and MMP-9-ΔC, in the TSCB buffer with 0.002 or 0.04% Brij 35 for 1 h at 4° C. followed by additional incubation for 1.5 h with anti-His tag antibody-conjugated agarose beads. The beads were washed three times with the binding buffer, and dissolved in 1×SDS sample loading buffer. Relative amounts of bound MMPs were assessed on the gelatin zymography. In order to perform CLU binding domain analysis, pro-MMP-9 bound to CLU-coupled beads was prepared, as described above, and then divided into two aliquots. They were incubated with and without 1 mM APMA at RT for 1 h in TSCB buffer on the rotator. The beads (B) were spun down and solution (S) was separated. The beads were washed with TSCB and resuspended in SDS sample loading buffer. Equivalent volume of S and B fraction were subjected to gelatin zymography.
as §3
(§6) The recombinant CLU contains a (His)6-Tag at the C-terminus of the protein, which was used for pull-down experiments with anti-His tag antibody beads. It was previously reported that CLU also binds to MT6-MMP/mmp-25 and that the hemopexin domain in the MMP C-terminal region is required for their interaction (Matsuda et al., 2003). To use as an internal control for the binding experiment, we removed part of MMP-9 (MMP-9-ΔC) by promoting self-processing by APMA (4-aminophenylmercuric acetate) treatment. For the in vitro binding assay we mixed MMP-2, MMP-9, and MMP-9-ΔC (FIG. 7).
(§7) Since different detergent concentrations affected the extent of inhibition of MMP-9 activity by CLU, we tested whether detergents may influence the binding affinity of CLU for MMP-9. To test this possibility, CLU pull down assay was performed. […]

Test [3] relates to pro-MMP-9, MMP-9, MMP-9-ΔC. The description is as above. Set-up: species or system mouse. As for the experimental part: as §4, §2, §5, §3, §6, §7

T2 sequence (P41245 20-730, stated change not applied): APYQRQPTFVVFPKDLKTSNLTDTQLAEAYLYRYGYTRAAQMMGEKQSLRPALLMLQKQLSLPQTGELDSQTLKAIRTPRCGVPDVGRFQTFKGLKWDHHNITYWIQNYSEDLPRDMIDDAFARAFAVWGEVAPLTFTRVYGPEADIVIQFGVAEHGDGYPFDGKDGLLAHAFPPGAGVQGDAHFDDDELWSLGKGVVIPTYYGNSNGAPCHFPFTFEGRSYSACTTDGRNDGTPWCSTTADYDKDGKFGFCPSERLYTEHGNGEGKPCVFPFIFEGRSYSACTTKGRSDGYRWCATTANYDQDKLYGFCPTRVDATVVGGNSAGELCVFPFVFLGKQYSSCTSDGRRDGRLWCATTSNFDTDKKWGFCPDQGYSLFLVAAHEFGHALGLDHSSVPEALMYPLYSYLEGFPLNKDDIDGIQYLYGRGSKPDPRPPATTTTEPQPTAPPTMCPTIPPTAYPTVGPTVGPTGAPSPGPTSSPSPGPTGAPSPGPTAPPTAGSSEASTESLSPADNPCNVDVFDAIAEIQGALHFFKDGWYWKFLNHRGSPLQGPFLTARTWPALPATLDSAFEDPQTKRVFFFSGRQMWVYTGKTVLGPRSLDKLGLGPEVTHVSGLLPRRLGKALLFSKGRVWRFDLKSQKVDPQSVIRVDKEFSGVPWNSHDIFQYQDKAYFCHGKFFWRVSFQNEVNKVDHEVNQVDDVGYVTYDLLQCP
T1 sequence (P33434 110-662): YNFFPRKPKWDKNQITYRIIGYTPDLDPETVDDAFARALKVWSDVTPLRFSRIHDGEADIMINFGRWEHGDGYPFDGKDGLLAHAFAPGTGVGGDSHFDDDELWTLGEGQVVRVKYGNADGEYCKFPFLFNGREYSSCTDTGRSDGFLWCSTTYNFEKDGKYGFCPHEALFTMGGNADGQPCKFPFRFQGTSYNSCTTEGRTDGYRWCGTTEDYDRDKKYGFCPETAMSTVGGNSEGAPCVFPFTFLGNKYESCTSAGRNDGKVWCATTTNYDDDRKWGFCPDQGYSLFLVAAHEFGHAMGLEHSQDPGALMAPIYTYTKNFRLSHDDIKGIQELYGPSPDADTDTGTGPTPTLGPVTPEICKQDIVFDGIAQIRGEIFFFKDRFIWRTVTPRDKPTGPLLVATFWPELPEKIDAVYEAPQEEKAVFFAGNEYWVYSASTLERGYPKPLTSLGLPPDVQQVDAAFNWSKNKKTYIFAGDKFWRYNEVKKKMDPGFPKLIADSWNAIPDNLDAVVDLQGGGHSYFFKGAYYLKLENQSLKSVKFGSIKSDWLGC

B1: CLU: secreted disulfide-linked heterodimeric glycoprotein (70-80 KD); assays used recombinant mouse CLU with C-terminal (His)6 (protein, UniProt Q06890 22-448, looked up)
Clusterin: EQEVSDNELQELSTQGSRYINKEIQNAVQGVKHIKTLIEKTNAERKSLLNSLEEAKKKKEDALEDTRDSEMKLKAFPEVCNETMMALWEECKPCLKHTCMKFYARVCRSGSGLVGQQLEEFLNQSSPFYFWMNGDRIDSLLESDRQQSQVLDAMQDSFARASGIIDTLFQDRFFARELHDPHYFSPIGFPHKRPHFLYPKSRLVRSLMSPSHYGPPSFHNMFQPFFEMIHQAQQAMDVQLHSPAFQFPDVDFLREGEDDRTVCKEIRRNSTGCLKMKGQCEKCQEILSVDCSTNNPAQANLRQELNDSLQVAERLTEQYKELLQSFQSKMLNTSSLLEQLNDQFNWVSQLANLTQGEDKYYLRVSTVTTHSSDSEVPSRVTEVVVKLFDSDPITVVLPEEVSKDNPKFMDTVAEKALQEYRRKSRAE
modifications: C-terminal His6 tag
Turning to B1, the “TNF-induced MMP-9 secretion” value in test [1] is on record as “inhibited TNF-induced MMP-9 secretion”. Moreover, the “binding of MMP-2 to His-tagged CLU” value in the test with MMP-2 is “Though weaker than MMP-9, MMP-2 also had an affinity for CLU”. Also, the “sensitivity of pro-MMP-9 affinity for CLU to detergent concentration” value in test [2] (0.002% vs 0.04% Brij 35) is listed as “not sensitive to the detergent concentration”. For the same molecule, the “affinity of pro-MMP-9 for CLU relative to the other forms of MMP-9” value in test [2] (band densities, Image J) is on record as “at least 10 times”. Besides, the “binding of MMP-9 and MMP-9-ΔC to CLU at high detergent” value in test [3] (0.04% Brij 35) is “do not bind to CLU at the high Brij 35 concentration”. Further, in test [3] (150 mM NaCl binding buffer), the “binding of C-terminal truncated MMP-9 to His-tagged CLU” value is given as “did not” and the “binding of MMP-9 to His-tagged CLU (bound vs input)” value is given as “highly enriched in the bound sample”.
